Target: SARS-CoV-2 S1 (Avi-tag, biotinylated) (SARS-CoV-2, original strain, UniProt P0DTC2, biotinylated (Avi-tag))
Test: BLI

Binder | Kd [nM]
mAb-50, purified antibody (antibody, V domains shown) VH: QVQLQESGPGLVNPSETLSLTCGVSGYSISSGFYWGWIRQPPGKGLEWIGSIYHRGSTFYNPSLKSRVTISVDRSKNQFSLRLSSVTAADTAVYYCARGEVLTSGGYNARFDPWGQGTLVTVSS VL: DIQMTQSPSTLSASVGDSVTITCRASQSISLWLAWYQQKPGKAPKVLIYETSSLESGVPSRFSGSGAGTEFTLTISSLQPDDFATYYCQQYISYPLTFGGGTKVEIK | 1.61
mAb-64, purified antibody (antibody, V domains shown) VH: EVQLVETGGGLIQPGGSLRLSCAASGFTVSSNYMSWVRQAPGKGLEWVSVIYSGGSTYYADSVKGRFTISRDNSKNTLYLQMNSLRAEDTAVYYCARDLHIYGMDVWGQGTTVTVSS VL: DIQMTQSPSSVSASVGDRVTITCRASQGISSWLAWYQQKPGKAPKLLIYAASSLQSGVPSRFSGSGSGTDFTLTISSLQPEDFATYYCQQANSFPNFGGGTKVEIK | 1.96

Reference: publication PMC8692065 (Cell Reports, 2021)
